Key:
[1] = test system: PDCL3 and VEGFR-2; test: Chemical hypoxia, expression of PDCL3 and VEGFR-2; format: cell-based
From the text: To test whether, increased expression of VEGFR-2 in response to hypoxia is linked to induction of PDCL3 expression, we silenced expression of PDCL3 by siRNA and analyzed measured VEGFR-2 levels.

[2] = test system: zebrafish embryos; test: Zebrafish angiogenesis assay; format: in vivo, zebrafish (Danio rerio); settings: microinjection into embryos, 28 hpf
Description: The vectors were linearized with Not I restriction enzyme, treated with Proteinase K (SIGMA) and extracted with phenol. Linearized plasmid DNA (1 μg/μl) in RNAse-free water was used for in vitro capped mRNA synthesis using the MMESSAGE MMACHINE® SP6 kit (AMBION) according to manufacturer instructions and RNA subsequently was used to inject into zebrafish embryos.
Fli-eGFP-transgenic adult male and female zebrafish (Danio rerio) were housed in […] light-dark cycle at a temperature of (26.5° C.) and a pH of (7.0-7.4) in a controlled multi-tank recirculating water system (Aquatic Habitats, Apopka, Fla.). Fish were fed twice daily with live brine shrimp (Brine Shrimp Direct, Ogden, Utah) and flake food (TetraMin; Tetra, Blacksburg, Va.). A glass capillary needle attached to a Femtojet injector (EPPENDORF) was used for injecting RNA (10 or 5 ng/μl in approximately 10 pl) into 1- or 2-cell-stage embryos. The embryos were grown at 28° C. for 3 days. The embryos were examined after 28 or 50 hpf using Zeiss immunofluorescence microscope. The images of fish under same setting were obtained for 10 fish per group at every experiment and analyzed for the length of the tail vessels using IMAGE-PRO® software and for the tail vessel plexus fluorescent intensity using Image J software.

[3] = test system: PDCL3 with VEGFR-2; test: Brefeldin A treatment, co-immunoprecipitation of PDCL3 with VEGFR-2; format: cell-based; settings: HEK-293 cells
Description: FIG. 7A. Cells expressing VEGFR-2 alone or together were subjected cell surface biotinylation. Non-biotinylated and biotinylated fractions were immunoprecipitated with anti-VEGFR-2 antibody and blotted for PDCL3 using anti-c-Myc antibody. Non-biotinylated and biotinylated fractions also were blotted for VEGFR-2 and PARP as a control. FIG. 7B. HEK-293 cells were co-transfected with Myc-tagged PDCL3 and VEGFR-2 and after 48 hours they were treated with BFA or control vehicle. Cells were lysed and whole cell lysates were either blotted for VEGFR-2 or were subjected co-immunoprecipitation using anti-c-Myc antibody followed by immunoblotting with anti-VEGFR-2. FIG. 7C. HEK-293 cells were co-transfected with Myc-tagged PDCL3 and VEGFR-2 and after 48 hours cells were fixed and subjected to IF staining as described in Materials and Method section. Cells were stained with anti-PDCL3, anti-c-myc antibodies (FIGS. 7C-7D) or endoplasmic reticulum specific dye FIG. 7E.

[4] = test system: VEGFR-2; test: Co-immunoprecipitation with VEGFR-2 and VEGFR-2 ubiquitination blot; format: cell-based; settings: HEK-293 cells co-expressing VEGFR-2
Description: (§1) FIG. 6A. Cell lysates from HEK-293 cells co-expressing PDCL3 with VEGFR-2 or HA-PDCL3 with VEGFR-2 were immunoprecipitated with VEGFR-2 and immunoblotted for PDCL3 using anti-Myc antibody. Whole cell lysates was also blotted for VEGFR-2, PDCL3 and HSp70 as a loading control. Ubiquitination of VEGFR-2 was determined by immunoprecipitation with anti-VEGFR-2 followed by immunoblotting with anti-ubiquitin antibody. FIG. 6B. The graph is quantification of the ubiquitination blot of VEGFR-2. FIG. 6C. Angiogenic potential of wild-type and HA-tagged methionine mutant PDCL3 expressed in PAE cells is shown. PAE cells engineered to express VEGFR-2 alone, VEGFR-2 with wild-type PDCL3 or VEGFR-2 with HA-tagged methionine mutant PDCL3. Cells were plated on matrigel and pictures were taken after 12 hours. Image J was used to quantify tube formation. Graph is representative of three independent experiments.
Plasmids and siRNA: Human Phosducin like protein 3 cDNA (PDCL3 also called PHLP2A) (Clone #3344703, accession #BC001021) was purchased from OPEN BIOSYSTEMS and was cloned into expression vectors, pcDNA3.1/Myc-His(−) or retroviral pMSCV. Mutant PDCL3 was generated by removing the first methionine and adding HA tag and similarly was cloned into pcDNA3.1 and pMSCV vectors. […]

[5] = test system: PAE cells; test: Capillary tube formation on matrigel; format: cell-based, porcine; settings: over-expression with VEGFR-2 in endothelial cells, 12 hours
Description: as §1

[6] = test system: VEGFR-2; test: Protein aggregation assay (PSA dye), thermo-induced aggregation; format: biochemical; settings: immunoprecipitated VEGFR-2, 45° C.
Description: Aggregation of VEGFR-2 determined using PSA kit purchased from PROFOLDIN, Inc (Hudson, Mass.) and assay was performed according to manufacturer's guideline. […] When the PSA dye binds to the aggregate, it is immobilized and slows down the rotational movement and inducing the dye to fluoresce. In brief, VEGFR-2 immunoprecipitated from HEK-293 cells and eluded from the protein-sepharose beads. The eluded VEGFR-2 protein was incubated in the 45° C. in the presence or absence of purified GST-PDCL3 for various time points. The Fluorescence intensity was measured at […].

[7] = test system: VEGFR-1, VEGFR-2 and CSF-1R; test: Receptor expression in HEK-293 cells expressing PDCL3; format: cell-based
Description: FIG. 1A. HEK-293 cells expressing VEGFR-2 were transfected with different concentrations of C-terminus Myc-tagged PDCL3. After 48 hours cells were lysed and whole cell lysates (WCL) were blotted for VEGFR-2, PDCL3 and Hsp70 for loading control. Quantification of premature (newly synthesized and partially glycosylated VEGFR-2 corresponding to lower molecular weight) and mature (fully glycosylated) forms of VEGFR-2 is shown. Mean results of three independent experiments are shown. *P=0.04 and […]. FIG. 1B. Human umbilical vein endothelial cells (HUVECs) were transfected with control siRNA or PDCL3-siRNA. After 48 hours cells serum-starved for overnight followed by stimulation with VEGF for 10 minutes. Cells were lysed and whole cell lysates were blotted for phospho-Y1054-VEGFR-2, total VEGFR-2, PDCL3 and Hsp70 for loading control. FIG. 1C. Thermo-induced aggregation of VEGFR-2 was measured using PSA dye as described in the materials and method section. FIG. 1D. In vitro transcription/translation of VEGFR-2 in the absence or presence of exogenous recombinant PDCL3 was performed as described in the materials and method section and schematic of the procedure is shown. FIG. 1E. In vitro translated VEGFR-2 protein in the absence or presence of exogenous recombinant PDCL3 was blotted for VEGFR-2. FIG. 1F. […]

[8] = test system: VEGFR-2; test: Cycloheximide-chase / VEGF-induced downregulation of VEGFR-2; format: cell-based
Description: FIG. 2A. Illustrated is the schematic of treatment of cells with cycloheximide (CHX) and VEGF. PAE cells co-expressing VEGFR-2 with empty vector (pMSCV) or PDCL3 were incubated with CHX for 90 minutes followed by stimulation with VEGF for indicated times. Whole cell lysates was blotted for VEGFR-2 and loading control protein, PLCγ1. FIG. 2B. Shown are the quantification of the half-life of mature VEGFR-2 and pre-mature VEGFR-2 based on the VEGFR-2 blot from the panel FIG. 2A. FIGS. 2C-2D. PAE cells co-expressing VEGFR-2 with empty vector (pMSCV) or PDCL3 were stimulated with VEGF for indicated times and whole cell lysates were processed as panel FIG. 2A.
PAE cells expressing VEGFR-2 alone or together with PDCL3 were serum-starved for overnight followed by incubation of cells with serum-free DMEM medium containing cycloheximide (20 μg/ml, 90 min). Cells then were stimulated with VEGF for various times to downregulate cell surface VEGFR-2. Cells were lysed and whole cell lysates was blotted for VEGFR-2 using anti-VEGFR-2 antibody. For measuring half-life of PDCL3 and HA-tagged mutant PDCL3, cells were incubated with serum-free DMEM medium containing cycloheximide (20 μg/ml) for indicated times and cells were lysed and whole cell lysates was blotted for PDCL3.

Molecule: [Cl][Co][Cl] [cobalt chloride]
- expression of PDCL3 and VEGFR-2 [1]: similarly increased expression of PDCL3 and VEGFR-2

Molecule: pdcl3 morpholino: PDCL3 morpholino for zebrafish, 5′CGGTGTCTGCGTTTGGGTCCTGCAT3′ (SEQ ID NO: 10), Gene Tools (all phosphorodiamidate morpholino (PMO))
- angiogenesis (intersegmental vessel formation) [2]: significantly inhibited angiogenesis

Molecule: C[C@H]1CCC/C=C/[C@@H]2C[C@H](O)C[C@H]2[C@H](O)/C=C/C(=O)O1 [Brefeldin A]
- binding of PDCL3 with VEGFR-2 [3]: did not inhibit the binding of PDCL3 with VEGFR-2

B1: acetylation resistant HA-tagged PDCL3: Mutant PDCL3 generated by removing the first methionine and adding HA tag (protein)
chain: QDPNADTEWNDILRKKGILPPKESLKELEEEAEEEQRILQQSVVKTYEDMTLEELEDHEDEFNEEDERAIEMYRRRRLAEWKATKLKNKFGEVLEISGKDYVQEVTKAGEGLWVILHLYKQGIPLCALINQHLSGLARKFPDVKFIKAISTTCIPNYPDRNLPTIFVYLEGDIKAQFIGPLVFGGMNLTRDELEWKLSESGAIMTDLEENPKKPIEDVLLSSVRRSVLMKRDSDSEGD
modifications: left off: small tags and cut ends
- interaction with VEGFR-2 [4]: interacted strongly with VEGFR-2 compared to wild-type PDCL3
- ubiquitination of VEGFR-2 [4]: prevented VEGFR-2 from ubiquitination
- angiogenesis/capillary tube formation [5]: more robust

B2: PDCL3: 239-amino acid human phosducin-like protein 3, SEQ ID NO: 1; expressed from cDNA in cells (protein, listed as Homo sapiens)
chain: MQDPNADTEWNDILRKKGILPPKESLKELEEEAEEEQRILQQSVVKTYEDMTLEELEDHEDEFNEEDERAIEMYRRRRLAEWKATKLKNKFGEVLEISGKDYVQEVTKAGEGLWVILHLYKQGIPLCALINQHLSGLARKFPDVKFIKAISTTCIPNYPDRNLPTIFVYLEGDIKAQFIGPLVFGGMNLTRDELEWKLSESGAIMTDLEENPKKPIEDVLLSSVRRSVLMKRDSDSEGD
modifications: Myc tag in some forms
notes: expressed from cDNA in cells
- angiogenesis/capillary tube formation [5]: increased angiogenesis/capillary tube formation
- aggregation of VEGFR-2 [6]: significantly reduced aggregation of VEGFR-2 in a time-dependent manner
- expression of VEGFR-1, VEGFR-2 and CSF-1R [7]: markedly increased expression of VEGFR-1, VEGFR-2 and CSF-1R
- abundance of premature and mature forms of VEGFR-2 ([7]; different concentrations of Myc-tagged PDCL3, 48 hours): increases the abundance of premature and mature forms of VEGFR-2 in a dose-dependent manner
- half-life of newly made VEGFR-2 ([8]; PAE cells co-expressing VEGFR-2 with PDCL3): extends the half-life of newly made VEGFR-2
- VEGF-induced downregulation of mature VEGFR-2 ([8]; PAE cells, absence of cycloheximide): markedly slower

— patent US11406709B2, “Therapeutic and research application of PDCL3” (TRUSTEES OF BOSTON UNIVERSITY, priority 2014, dated 2022)
